Experimental findings from patent US20250355001A1 (GTINVENT, published 2025) are described below.

In experiment [1] the target is T1, dGAE (tau 297-391) (human, UniProt P10636 614-708).
T1 construct: monomer; also called dGAE95
Nature of the experiment: SPR, scAb captured, tau analyte. Put shortly:
(§1)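 scAb captured on flow cell 2 of an antibody-coated chip, flow cell 1 as reference; tau analyte injected 120 s association, 420 s dissociation, glycine pH 2.0 regeneration, in multi-cycle or single-cycle kinetics format. Responses fitted to a 1:1 binding model for kinetics and affinity.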

Experiment [2] has as its target T1, dGAE (tau 297-391). Description: Biacore, for dGAE. (Surface plasmon resonance follows binding to a sensor surface in real time, without labels.)
For experiment [3], the target named is T2, dGA (tau 297-390) (human, UniProt P10636 614-707). Description: direct ELISA. In outline: (§2)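 Direct or streptavidin-capture binding ELISA with scAb dilution series; signal from anti-human C kappa HRP measured as absorbance.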
T2 sequence (P10636 614-707 limits assumed): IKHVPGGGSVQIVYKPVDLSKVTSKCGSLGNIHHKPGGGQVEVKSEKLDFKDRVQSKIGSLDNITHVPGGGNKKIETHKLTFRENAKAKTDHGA
For orientation: In an ELISA, binding on a coated surface is turned into a signal by an enzyme label.

The target of experiment [4] is T3, full length human tau protein 2N4R (hT40) (human, UniProt P10636 1-758).
T3 construct: recombinant; also called T441
Nature of the experiment: direct ELISA. Put shortly: as §2

Experiment [5] addresses T1, dGAE (tau 297-391). Nature of the experiment: sandwich ELISA, dGAE titrated, S1D12 mAb capture.
In experiment [6] the target is T4, tau fragment 1-49 (human).
T4 construct: also called Tau 1-49
T4 peptide: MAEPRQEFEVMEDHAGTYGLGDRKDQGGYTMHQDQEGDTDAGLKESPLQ
Description: direct ELISA.

The target in experiment [7] is T2, dGA (tau 297-390). Nature of the experiment: sandwich ELISA #1, S1D12 mAb capture, sample C.
Description: To this end, an experiment was set up to assess whether the concentrations of different tau species could be determined in spiked samples using various antibody pairings directed towards specific regions of the tau protein.
(§3) Four spiked samples were added to the first wells of designated rows and all samples were double diluted in PBS across the plate including the standard. […] Secondary antibody anti HuCk HRP was added and the reaction was developed and read as described previously. For ELISA #2, 20 nM dGAE was added to the first well and double diluted across the plate for standard curve plotting. As for ELISA #1, spiked samples of unknown protein concentrations were added to respective wells in doubling dilutions. […] For ELISA #3, a standard curve was plotted using average absorbance values obtained from binding events of hT40, dGA and dGAE all at starting concentration of 20 nM.
Experiment [8] has as its target T3, full length human tau protein 2N4R …. Description: SPR, scAb captured, tau analyte. In outline: as §1
Target sequence in this assay (P10636 other isoform, or with tags, fused parts or gaps limits assumed): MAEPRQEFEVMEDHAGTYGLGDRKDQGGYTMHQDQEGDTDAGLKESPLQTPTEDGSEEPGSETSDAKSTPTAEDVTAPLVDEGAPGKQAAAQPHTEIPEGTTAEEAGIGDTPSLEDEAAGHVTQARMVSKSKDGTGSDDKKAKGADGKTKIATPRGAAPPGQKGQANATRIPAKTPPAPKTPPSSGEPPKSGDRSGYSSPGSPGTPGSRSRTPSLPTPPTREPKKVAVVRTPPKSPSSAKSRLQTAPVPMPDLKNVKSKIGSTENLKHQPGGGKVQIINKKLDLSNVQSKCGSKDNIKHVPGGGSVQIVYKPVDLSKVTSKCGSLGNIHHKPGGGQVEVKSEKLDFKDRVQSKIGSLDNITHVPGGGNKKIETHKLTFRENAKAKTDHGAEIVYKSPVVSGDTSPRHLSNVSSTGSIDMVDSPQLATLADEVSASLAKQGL
For experiment [9], the target named is T5, mouse tau (mouse, UniProt P10637 2-733).
T5 construct: endogenous protein of mouse brain or plasma; also called endogenous mouse tau
T5 sequence (P10637 other isoform, or with tags, fused parts or gaps limits assumed): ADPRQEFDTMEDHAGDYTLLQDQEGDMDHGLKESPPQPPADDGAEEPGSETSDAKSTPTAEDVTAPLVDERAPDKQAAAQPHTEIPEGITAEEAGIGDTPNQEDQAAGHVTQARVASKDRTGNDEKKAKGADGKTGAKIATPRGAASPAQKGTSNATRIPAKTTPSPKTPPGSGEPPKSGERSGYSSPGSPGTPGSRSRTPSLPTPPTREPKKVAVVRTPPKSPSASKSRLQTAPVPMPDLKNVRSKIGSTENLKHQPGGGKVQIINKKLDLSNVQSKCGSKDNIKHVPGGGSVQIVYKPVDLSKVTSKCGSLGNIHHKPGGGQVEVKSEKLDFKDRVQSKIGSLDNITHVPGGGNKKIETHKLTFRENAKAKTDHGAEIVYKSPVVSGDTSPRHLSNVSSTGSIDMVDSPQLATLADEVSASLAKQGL
Description: sandwich ELISA on mouse plasma, S1D12 mAb capture.
Description: After washing and blocking as normal, several known standard solutions were set up in triplicate starting at 20 ng/ml of the desired protein before double diluted in the remaining wells. Mouse samples were added to wells in duplicate with a blank in between each sample group. Line1 plasma was diluted 1:10 before addition to plate to account for its high concentration while other samples were diluted 1:2 to account for potential matrix effects. These samples were left to incubate at RT for 1 hour. HRP-conjugated secondary scAb (conjugation carried out according to manufacturer's guidelines, Abcam) was added to each well and left to incubate at RT for 1 hour. The ELISA was developed using SuperSignal ELISA Femto Substrate (Thermo Scientific) and total luminescence was read on Clariostar Plus plate reader (BMG Labtech). Tau concentrations were established using a 4-parameter fit on concentration curves generated from recombinant tau protein spiked into samples at known concentration. For WT and L66 hT40 was used as a calibrator while dGA was used for L1 calibration.

In experiment [10] the target is T3, full length human tau protein 2N4R …. Description: Biacore. In outline: as §1
Target sequence in this assay (P10636 other isoform, or with tags, fused parts or gaps limits assumed): as the sequence (P10636 other isoform, or with tags, fused parts or gaps limits assumed) above
Experiment [11] addresses T6, human tau (hT40) with P301S and G335D of Line 66 mice (human, UniProt P10636 1-758).
T6 construct: transgene product in brain homogenate or plasma; also called L66 human tau
Nature of the experiment: sandwich ELISA on brain homogenate, S1D12 mAb capture.
Description: All animals were female, 7-8 months old except Line 66+/+ which were 5 months old. […] For brain lysate preparation, half brains were sectioned into four and the individual sections were homogenised in 400 μl of ice cold RIPA buffer (Cell signalling Technology) containing protease and phosphatase inhibitors. Total protein concentrations for individual samples were established by BCA-assay and each sample was subsequently diluted to 1 mg/ml for future experiments.
Plate was washed as previously and then blocked for 1 hour at 37° C. in 2% MPBS. Brain homogenate samples (50 ng total protein) from each mouse type were added to the first wells and double diluted across the plate in PBS. These samples were left to incubate at RT for 1 hour. Various detection scAbs encompassing epitopes of interest were then added to the plate at 1 μg/ml and incubated for 1 h at RT. Secondary antibody used was anti-HuCk HRP and the assays were developed as described previously.

Experiment [12] deals with T3, full length human tau protein 2N4R …. Description: sandwich ELISA, hT40 titrated, S1D12 mAb capture, CB7 scAb at 1 µg/ml.
Description: as §3
Experiment [13] shares this target. Nature of the experiment: sandwich ELISA, S1D12 mAb capture, scAb detection. In outline:
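Read-out was HRP anti-HuCk with absorbance at 450 nm (positive above 0.3 after background subtraction) or chemiluminescence, including directly HRP-conjugated scAbs.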
Target sequence in this assay (P10636 other isoform, or with tags, fused parts or gaps limits assumed): as above

For experiment [14] the target is unchanged. Description: SPR, summary table. In outline: as §1
Target sequence in this assay (P10636 other isoform, or with tags, fused parts or gaps limits assumed): as above
The target in experiment [15] is T1, dGAE (tau 297-391). Nature of the experiment: ELISA. Put shortly: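 Epitope mapping: coat 1 μg/ml antigen (tau fragments) or streptavidin 5 μg/ml + biotinylated peptide 1 μg/ml; block 2% MPBS; scAb 2-fold serial dilution; anti-human C kappa-HRP; absorbance read.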
For experiment [16], the target named is T3, full length human tau protein 2N4R …. Description: direct binding ELISA.

T1 sequence (P10636 614-708 limits assumed): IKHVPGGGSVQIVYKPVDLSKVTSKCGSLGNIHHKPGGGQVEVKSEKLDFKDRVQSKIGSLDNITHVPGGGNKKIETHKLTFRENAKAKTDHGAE

B1: E2E8 scAb (scFv, not shown: small tags and cut ends)
scFv: QVQLQESGPSLVKPSQTLSLTCTVSGFSLTDRGVAWVRQAPGKALEWVGTMRSGGTIDYNPALKSRLSITRDTSKSQVFLSLSSVTTEDMAMYYCARGYLSGDRYAWGRGLLVTVSSEGKSSGASGESKVDDQAVLTQPSSVSKSLGQSVSIACSGSRSDIGYGNYVSWFQQIPGSAPKLLIYDTNTRASGVPDRFSGARSGNTATLTINSLQAEDEADYYCANIDSSRSHLFGSGTRLTVLG
notes: scAb
A word on the Kd: it is the free concentration of one partner at which half of the binding sites on the other are occupied at equilibrium, for simple one-to-one binding. A higher Kd goes with a looser complex. A word on the koff: it is the first-order rate constant of dissociation. As a reminder, the kon is the rate constant with which the complex forms. Read a high kon as faster complex formation. As a reminder, the EC50 (read off the curve) is the concentration giving half of the maximal effect. Low readings indicate a more potent agent, high ones a less potent agent. Regarding B1, in [1], binding was put at a Kd of 0.401 nM, the koff came out at 0.000191 s⁻¹ and the kon amounted to 477000 M⁻¹ s⁻¹. In experiment [2], the Kd turned out to be 0.4 nM. For the same molecule, the binding result in experiment [3] is on record as “no binding (tested: 25 ug/ml)”. For the same molecule, in experiment [4], the binding result is “no binding (tested: 25 ug/ml)”. Further, the “EC50 (read off the curve)” value in experiment [5] was about 0.7 nM.

B2: CB7 scAb (scFv, not shown: small tags and cut ends)
scFv: QVQLQESGPSLVKPSQTLSLTCTVSGFSLTNYRVGWVRQAPGKALEWVSNIRSGGTTWYNPALKSRLSITADTSKSQVSLSLSSVTTEDTAVYYCARDSSGDLYAYDYWGPGLLVTVSSEGKSSGASGESKVDDQAVLTQPSSVSRSLGQSVSMTCSGSSSNVGYGNYMAWFQQVPGSAPKLLIYGATSRASGVPDRFSGSRSGNTATLTISSLQAEDEADYYCASYDSTSGGVFGSGTRLTVLG
notes: scAb
Turning to B2, the binding result in [6] is given as “binds”; in experiment [7] it was “no binding (tested: 2 nM dGA)”; in experiment [9] it was “no binding”; in experiment [11], “binds”. Also, the Kd was found to be 5.19 nM in [8], 5.2 nM in experiment [10] and 5.19 nM in experiment [14]. In addition, the koff in experiment [8] came out at 0.000694 s⁻¹. The molecule also had a kon in [8] of 133000 M⁻¹ s⁻¹. The “EC50 (read off the curve)” value in [12] is about 4 nM. The same molecule registered a LoD chemiluminescence detection in experiment [13] of 3.33 ng/mL. The same molecule registered a LoD colourimetric detection in experiment [13] of 15 ng/mL.

B3: E2A6 scAb (scFv, not shown: small tags and cut ends)
scFv: QVQLQESGPSLVKPSQTLSLTCTVSGFSLTDWGVAWVRQAPGKALEWLGTMRSGGTTDDNPALKSRLSITRDTSKSQVSLSLSSVTTEDMAMYYCARGYLSGVHYAWGRGLLVTVSSEGKSSGASGESKVDDRVVRTQPSSVSKSLGQSVSITCSGSSSNVGAGNYVGWFQQVPGSAPKLLIYGATNRASGVPARFSGSKSGVTATLTITSLQAEDEADYYCASIDTSRSHIFGSGTRLTVLG
notes: scAb
On to B3, for which the values for the binding result in experiment [15] and in experiment [16] were “binds” and “no binding”, respectively.
